Several values for one entry are separate records, joined by “and”; a condition that tells them apart may be missing. Equal entries are not always repeated.
How the values were obtained:
[1] = target: T1, Aβ1-42 fibrils (human); assay: competition ELISA; plate coated with fibril Aβ42; competitor hBP-biotin; IC50 of test divided by IC50 of hBP
T1 construct: Aβ1-42 polypeptide, HFIP-treated, incubated in 10 mM HCl at 37 C for 24 h, pelleted fibrillar fraction, sonicated; Multimeric fibril; also called fibril Aβ42; fibrillar Aβ42
T1 sequence (peptide, as listed by the source): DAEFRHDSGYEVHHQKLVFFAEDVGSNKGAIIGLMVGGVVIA
Procedure: To generate fibrils, Aβ 1-42 polypeptides, previously treated with HFIP (hexafluoroisopropanol) and dried, were resuspended in DMSO to 5 mM, then further diluted to 100 uM with 10 mM HCl. Samples were incubated at 37° C. for 24 h, and then centrifuged to separate soluble and fibrillar species. The pellet was the resuspended in 1×D-PBS to the original volume and sonicated before use.
Plates were coated with 0.5 mg/ml of fibril Aβ 42 and blocked, e.g., with 1% BSA/PBS. […] 100 ul of GE Streptavidin HRP diluted 1/10,000 was then added and incubated for 30 minutes. Plates were then washed 6× with TTBS. Thermo Fisher o-phenylenediamine dihydrochloride (OPD) substrate was prepared fresh per manufacturers direction, and 100 ul per well was added. The reaction was incubated for 15 minutes and the reaction stopped with 50 ul 2N H₂SO₄.

[2] = target: T2, Aβ1-28 (human); assay: SPR (Biacore T200); antibody captured by anti-human Fc, Aβ1-28 as analyte; global 1:1 fit
T2 construct: Bought peptide (Bachem); also called Aß1-28 monomer; A131-28
T2 sequence (peptide, as listed by the source): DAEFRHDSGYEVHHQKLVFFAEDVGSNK
Procedure: (§1) Determination of binding affinity of anti-Aß candidates to Aß₁₋₂₈ (Bachem, Torrance, CA) was performed using a Biacore T200. Anti-human Fc antibody was immobilized to a CM3 sensor chip (GE Healthcare Life Sciences) via amine coupling and used to capture Aß antibodies.
(§2) Various concentrations of Aß₁₋₂₈ (analyte, ranging from concentrations of 100 nM down to 0.39 nM, serial diluted 2-fold each dilution step) were passed over the captured ligand at 50 μl/min in running buffer (HBS+0.05% P-20, 1 mg/mL BSA) for 240 s association time and 900 s dissociation time. Data were blank subtracted to both an irrelevant sensor not containing ligand, and buffer runs containing 0 nM analyte concentration. Analysis was performed using a global 1:1 fit with Biacore Evaluation software (v3.0).

[3] = target: T1, Aβ1-42 fibrils; assay: direct binding to fibrillar Aβ1-42 (FIG. 27)
[4] = target: T3, AβpE3-42 (human, N-terminal pyroglutamate at position 3 of Aβ); assay: direct binding to AβpE3-42 (FIG. 27)
T3 construct: also called pyroglutamate-3 Aβ; pyroglutamate-modified Aβ
T3 sequence (peptide, as listed by the source): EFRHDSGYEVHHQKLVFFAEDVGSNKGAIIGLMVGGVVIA

[5] = target: soluble Aβ (Aβ42) aggregates (human, unlabeled, biotinylated or 9:1 unlabeled:biotinylated (position of biotin not stated)); assay: cell-based or functional assay
[6] = target: T4, Aβ pathology (plaques) in human AD brain tissue (human, UniProt P05067 672-713); assay: IHC on frozen human AD brain sections, brain AD 13-75; % stained area against antibody concentration (0.03-9 µg/ml)
T4 construct: Native tissue deposits, heterogeneous; also called tissue Aβ pathology; Aβ plaques
Procedure: (§3) Tissue Sectioning and Fixation. The unfixed frozen brain tissue samples were embedded in Tissue-Tek OCT (Sakura Finetek) in cryomolds dipped in a mixture of 2-methylbutane and dry ice slurry (−60° C.) then stored at −80° C. until sectioning. Serial 10 μm thick cryosections were generated using a Leica 3050S cryostat. The sections were directly thaw-mounted on positively charged glass slides and were stored at −20° C. until use. Prior to immunohistochemistry IHC procedures, the slides were immersed in 10% neutral buffered formalin solution for 10 minutes at 4° C., rinsed in PBS, then incubated for an hour at 37° C. in a glucose oxidase solution (20 mM beta D(+) glucose, 2 mM sodium azide, and 2 units/mL glucose oxidase in 1×PBS). The slides were rinsed 3 times for 5 minutes in PBS before they were transferred onto staining racks for processing in an automated stainer.
(§4) Antibody biotinylation. The humanized IgG antibodies were biotinylated using a non-covalent method, by means of incubation with a biotin-conjugated goat anti-human monovalent fab fragment (Jackson ImmunoResearch) in a ratio of 1:4, for 1 hour at room temperature. Unbound excess Fab was absorbed by pre-incubation with human serum for an additional hour before use. The freshly prepared antibodies were then loaded into the stainer for immediate application to tissue sections.
(§5) Immunostaining. The staining was performed in an automated Leica Bond Rx Stainer (Leica Biosystems), using the Bond Research Kit (DS980, Leica Biosystems) and the avidin-biotin amplified immuno-peroxidase detection system. Each biotinylated anti-Aβ antibody, or a human IgG control, was applied to the sections, at specified concentrations, for one hour and the staining was visualized using the avidin-biotin amplification system (ABC Elite Standard, PK-6100; Vector Laboratories). Hematoxylin counter-staining of nuclei was subsequently applied to sections before dehydration in an ascending series of alcohols, clearing in xylene, cover-slipping, and air-drying.

[7] = target: T1, Aβ1-42 fibrils; assay: SPR (BIAcore T200); Aβ1-42 fibrils immobilized, antibody as analyte; global 1:1 fit
Procedure: (§6) Fibrils were immobilized on sensor chip CMS (GE Healthcare Life Sciences) via amine coupling to a level to ensure a maximum binding of analyte of approximately 50 RU. […] Regeneration of the chip surface was accomplished by 2 short injections of 10 mM Glycine-HCl pH 1.7. Data was blank subtracted to both a sensor not containing ligand and 0 nM analyte concentration. Analysis was performed using a global 1:1 fit with BIAcore Insight Evaluation software (v2.0) with bulk refractive index set to zero RU.

[8] = target: T1, Aβ1-42 fibrils; assay: SPR (BIAcore T200); Aβ1-42 fibrils immobilized, antibody as analyte; global 1:1 fit; apparent KD (avidity)
Procedure: as §6

[9] = target: T4, Aβ pathology (plaques) in human AD …; assay: IHC on frozen human AD brain sections, brain AD 15-19; % stained area against antibody concentration (0.03-9 µg/ml)
Procedure: as §3, §4, §5

[10] = target: T2, Aβ1-28; assay: SPR (Biacore T200); antibody captured by anti-human Fc, Aβ1-28 as analyte; global 1:1 fit; apparent KD
Procedure: as §1, §2

[11] = target: T4, Aβ pathology (plaques) in human AD …; assay: IHC on frozen human AD brain sections, brain AD 11-97; % stained area against antibody concentration (0.03-9 µg/ml)
Procedure: as §3, §4, §5

[12] = target: T4, Aβ pathology (plaques) in human AD …; assay: IHC on frozen human AD brain sections, brain AD 14-11; % stained area against antibody concentration (0.03-9 µg/ml)
Procedure: as §3, §4, §5

IC50 ratio (test:hBP) [1]: 0.61 ratio
koff [2]: 0.000595 s⁻¹
kon [2]: 119000 M⁻¹ s⁻¹
EC50 [3]: 0.0081 µg/mL and 0.054 nM
binding result [4]: no binding (tested: 100 ng/ml)
blockade of binding of soluble Aβ to rat hippocampal neurons at 1:50 molar mAb:Aβ42 ratio [5]: > 90%
Area Under Curve [6]: 150
koff [7]: 2.62e-05 s⁻¹
kon [7]: 372000 M⁻¹ s⁻¹
Kd [8]: 0.0704 nM
Area Under Curve [9]: 52.7
Kd [10]: 5.01 nM
Area Under Curve [11]: 50.6
Area Under Curve [12]: 149
B1: h2731 (antibody, V domains shown)
VH: EVQLLESGGGLVQPGGSLRLSCAASGFTFSNYGMSWVRQAPGKGLEWVASIRSGSGRTYYSDNVKGRFTISRDNSKNTLYLQMNSLRAEDTAVYYCVRYDHYSGSSDYWGQGTLVTVSS
VL: DVVMTQSPLSLPVTLGEPASISCKSSQSLLDYDGKTYLNWLLQKPGQSPQRLIYRVTNRDTGVPDRFSGSGSGTDFTLKISRVEAEDVGVYYCWQGTHFPRSFGQGTKVEIK
notes: Humanized IgG mAb; Only the variable domains are tied to the construct

Reference: patent publication US20230331828A1 (published 2023)
